Laboratory results taken from article PMC7954794, “Protein context shapes the specificity of SH3 domain-mediated interactions in vivo” (Nature Communications, 2021).

Columns and labels:
Format in all cases: cell-based, Saccharomyces cerevisiae
Hua2 = assay: Deep mutational scanning of Abp1 SH3, Abp1-Hua2 DHFR-PCA (DMS score); conditions: for hua2sc (DMS score): Abp1-Hua2, frequencies scaled to the synonymous mutation distribution; for HUA2_MTX2 (frequency normalized to the reference condition): Abp1 SH3 DMS, Abp1-Hua2 DHFR-PCA, MTX2, frequencies normalized to the reference condition
How it was run: (§1)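 Each SH3 position is mutated to all possible codons within endogenous ABP1; the pooled strains are crossed to DHFR F[3]-tagged partners, diploids are enriched in NAT/HPH media, and two 72 h complementation selections at 30 °C follow, with Illumina counts of the locus yielding the score.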

Lsb3 = assay: Deep mutational scanning of Abp1 SH3, Abp1-Lsb3 DHFR-PCA (DMS score); conditions: for lsb3sc (DMS score): Abp1-Lsb3, frequencies scaled to the synonymous mutation distribution; for LSB3_MTX2 (frequency normalized to the reference condition): Abp1 SH3 DMS, Abp1-Lsb3 DHFR-PCA, MTX2, frequencies normalized to the reference condition
How it was run: as §1

Hua2 and Lsb3 = assay: Classification of Abp1 SH3 mutations by effect on Hua2 and Lsb3 DMS scores (quadrant); conditions: class of mutation by Hua2 and Lsb3 DMS scores (Dest. both, Dest. Hua2, Dest. Lsb3, Neutral)

| Molecule | hua2sc (DMS score) (Hua2) | HUA2_MTX2 (frequency normalized to the reference condition) (Hua2) | lsb3sc (DMS score) (Lsb3) | LSB3_MTX2 (frequency normalized to the reference condition) (Lsb3) | quadrant (Hua2 and Lsb3) |
| --- | --- | --- | --- | --- | --- |
| ABP1 Y9Y (protein, UniProt P15891 2-592, looked up, synonymous codon change Y9Y) Actin-binding protein: ALEPIDYTTHSREIDAEYLKIVRGSDPDTTWLIISPNAKKEYEPESTGSSFHDFLQLFDETKVQYGLARVSPPGSDVEKIIIIGWCPDSAPLKTRASFAANFAAVANNLFKGYHVQVTARDEDDLDENELLMKISNAAGARYSIQTSSKQQGKASTPPVKKSFTPSKSPAPVSKKEPVKTPSPAPAAKISSRVNDNNDDDDWNEPELKERDFDQAPLKPNQSSYKPIGKIDLQKVIAEEKAKEDPRLVQKPTAAGSKIDPSSDIANLKNESKLKRDSEFNSFLGTTKPPSMTESSLKNDDDKVIKGFRNEKSPAQLWAERKAKQNSGNAETKAEAPKPEVPEDEPEGEPDVKDLKSKFEGLAASEKEEEEMENKFAPPPKKSEPTIISPKPFSKPQEPVKAEEAEQPKTDYKKIGNPLPGMHIEADNEEEPEENDDDWDDDEDEAAQPPLPSRNVASGAPVQKEEPEQEEIAPSLPSRNSIPAPKQEEAPEQAPEEEIEEEAEEAAPQLPSRSSAAPPPPPRRATPEKKPKENPWATAEYDYDAAEDNELTFVENDKIINIEFVDDDWWLGELEKDGSKGLFPSNYVSLGN | -0.7456 | 0.8672 | -0.3936 | 1.1067 | Neutral |
| ABP1 D10D (protein, UniProt P15891 2-592, looked up, synonymous D10D codon change) Actin-binding protein: ALEPIDYTTHSREIDAEYLKIVRGSDPDTTWLIISPNAKKEYEPESTGSSFHDFLQLFDETKVQYGLARVSPPGSDVEKIIIIGWCPDSAPLKTRASFAANFAAVANNLFKGYHVQVTARDEDDLDENELLMKISNAAGARYSIQTSSKQQGKASTPPVKKSFTPSKSPAPVSKKEPVKTPSPAPAAKISSRVNDNNDDDDWNEPELKERDFDQAPLKPNQSSYKPIGKIDLQKVIAEEKAKEDPRLVQKPTAAGSKIDPSSDIANLKNESKLKRDSEFNSFLGTTKPPSMTESSLKNDDDKVIKGFRNEKSPAQLWAERKAKQNSGNAETKAEAPKPEVPEDEPEGEPDVKDLKSKFEGLAASEKEEEEMENKFAPPPKKSEPTIISPKPFSKPQEPVKAEEAEQPKTDYKKIGNPLPGMHIEADNEEEPEENDDDWDDDEDEAAQPPLPSRNVASGAPVQKEEPEQEEIAPSLPSRNSIPAPKQEEAPEQAPEEEIEEEAEEAAPQLPSRSSAAPPPPPRRATPEKKPKENPWATAEYDYDAAEDNELTFVENDKIINIEFVDDDWWLGELEKDGSKGLFPSNYVSLGN | -0.2777 | 1.335 | 0.006531 | 1.507 | Neutral |
| ABP1 A11A (protein, UniProt P15891 2-592, looked up, synonymous codon change A11A in SH3) Actin-binding protein: ALEPIDYTTHSREIDAEYLKIVRGSDPDTTWLIISPNAKKEYEPESTGSSFHDFLQLFDETKVQYGLARVSPPGSDVEKIIIIGWCPDSAPLKTRASFAANFAAVANNLFKGYHVQVTARDEDDLDENELLMKISNAAGARYSIQTSSKQQGKASTPPVKKSFTPSKSPAPVSKKEPVKTPSPAPAAKISSRVNDNNDDDDWNEPELKERDFDQAPLKPNQSSYKPIGKIDLQKVIAEEKAKEDPRLVQKPTAAGSKIDPSSDIANLKNESKLKRDSEFNSFLGTTKPPSMTESSLKNDDDKVIKGFRNEKSPAQLWAERKAKQNSGNAETKAEAPKPEVPEDEPEGEPDVKDLKSKFEGLAASEKEEEEMENKFAPPPKKSEPTIISPKPFSKPQEPVKAEEAEQPKTDYKKIGNPLPGMHIEADNEEEPEENDDDWDDDEDEAAQPPLPSRNVASGAPVQKEEPEQEEIAPSLPSRNSIPAPKQEEAPEQAPEEEIEEEAEEAAPQLPSRSSAAPPPPPRRATPEKKPKENPWATAEYDYDAAEDNELTFVENDKIINIEFVDDDWWLGELEKDGSKGLFPSNYVSLGN | 0.2975 | 1.91 | 0.4621 | 1.962 | Neutral |
